Reference: the nanobody polyreactivity screen of Harvey et al. (2022)

Test: yeast display, Sf9 membrane polyspecificity reagent, FACS + sequencing; frameworks hold sequencing errors
How it was run: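 Synthetic nanobody libraries on Saccharomyces cerevisiae BJ5465 were galactose-induced for 36–48 hours, stained 1 hour at 4 °C with 10% biotinylated, detergent-solubilized Sf9 membrane reagent and enriched on streptavidin microbeads. FACS then separated cells into low and high (top ~1%) gates by anti-HA (expression) and streptavidin (reagent binding) fluorescence. Genes were colony-PCR amplified, MiSeq 2 × 250 sequenced and CDR-length filtered. A clone's polyreactivity label is that of its gate of origin.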

Sequence | polyreactivity (PSR sort gate)
QVQLVESGGGLVQAGGSLRLSCAASGFTFPNYAMGWYRQAPGKERELVAAITSGGGRTNYADSVKGRFTISRDNAKNTVYLQMNSLKPEDTAVYYCNAEKTYLGSRYRPYNYWGQGTQVTVSS | low polyreactivity
QVQLVESGGGLVQAGGSLRLSCAASGRTFDVYAMGWYRQAPGKERELVATISRSGGSTYYADSVKGRFTISRDNAKNTVYLQMNSLKPEDTAVYYCAARKRSPPYGYWGQGTQVTVSS | high polyreactivity
QVQLVESGGGLVQAGGSLRLSCAASGIILLRYTMGWYRQAPGKERELVAAISRSAGRTYYADSVKGRFTISRDNAKNTVYLQMNSLKPEDTAVYYCAAAFVSVRKRYGYWGHGTQVTVSS | high polyreactivity
QVQLVESGGGLVQAGGSLRLSCAASGSTFRHYAMGWYRQAPGKERELVAAISYSGSRTYYADSVKGRFTISRDNAKNTVYLQMNSLKPEDTAVYYCNVNLQGRYSDKYDYWGQGTQVTVSS | high polyreactivity
QVQHVESGGGLDQAGGSLRLSCAASGRTFAPYAMGWYRQAPGKEREFVAGITWSSSSTYADSVKGRFTISRDNAKNTVYVQMNSLKPDDPAVYYCAARHAKGGNRHYYWGQGTQVTVSS | high polyreactivity
QVQLVESGGGLVQAGGSLRLSCASSGSIFSSNTMGWYRQAPGKERELVAAITVSGGRTYYADSVKGRFTISRDNAKNTVYLQMNSLKPEDTAVYFCAARYANTYRTETSYPRYYSWGQGTHVTVSS | high polyreactivity
QVQLVESGGGLVQAGGSLRLSCAASGRTFFRNAMGWYRQAPGKERELVAAISKRGGSTRYADSVKGRFTISRDNAKNTAYLQMNSLQPEDTAVYYCAADSRLEYSHATLYYCGQGTQVTVSS | high polyreactivity
QVQLVESGGGLVQAGGSLRLSCAASGLTFYSNAMGWYIQAPGKERELVASISKRGATTYYADSVKGRFTISRDIAKYTVYLQMNSQKAEDTAVYYCAAEYLRNQELGYQGVAILYVFWGQGTQVTVSS | low polyreactivity
QVQLVESGGGLDQAGGSLRLSCAAAGITFTYYAMGWYRPAPGKERELVASITIGGGSTYYADSVKVRFTISRDNAKNTVYLQMKSLKPEDTAVYYCNAAFSVRHLYRYDYWGQGTQVTVSS | low polyreactivity
QVQLVESGGGLVQAGGSLRLSCAASGITLRRNAMGWYRQATGKERELVAAISWSGGRTYYADSVKGRFTISRDNAKNTVYLQMNSLKPEDTAVYYCAARGYPLTAIDYWGQGTQVTVSS | high polyreactivity
QVQLEESGGGLVQAGGSLRLSCAASGFTFRVYAMGWYRQAPGKERELVAAISSGGSTNYADSVKGRFTISRDNAKNTVYLQMNSLKPEDTAVYYCAARQRYYSERPQYSGLYYWGQGTQVTVSS | high polyreactivity
QVQLVESGGGLVQAGGSLRLSCAASGRTFPWYAMGWYRQAPGKERELVAAITYSVGSTYYADSVKGRFTISRDNAKNTVYLQMNSLKPEDTAVYYCAADSYPYRYRGKYSRLDYWGQGTQVTVSS | low polyreactivity
QVQLVESGGGLVQAGGSLRLSCAASGLTFTYYAMGWYRQAPGKERELVAAISSSGSDTYYADSVKGRFTISRDNAKNTVYLQMNSLKPEDTAVYYCAAVLTALSPDFEYEYWGQGTQVTVSS | low polyreactivity
QVQLVESGGGLVQAGGSLRLSCAASGFIFSYYAMGWYRQAPGKERELVATINFSGGRTYYADSVKGRFTISRDNEKNTVYLQMNSLKPEDTAVYYCAASFYSYTSRYPDYYYWGQGTQVTVSS | high polyreactivity
QVQLVESGGGLVQEGGSLRLSCAASGRTFSRYVMGWYRQAPGKERELVAAIRGSGGGTYYADSVKGRFTISRDNAKNTVYLQMNSLKPEDTAVYYCNVVRSTVLYDYWGQGTQVTVSS | high polyreactivity
QVQLVESGGGLVQAGGSHRLSCAASGSTFYYYAMGWYRQAPGKERELVAAISKSGGRTYYADSVKGRFTFSRDNAKNTVYLQMNSLKPEDTAVYYCNAVQYLNGYDYWGQGTQVTVSS | high polyreactivity

Sequence | polyreactivity (PSR sort gate)
QVQLVESGGGLVQAGGSLRLSCAASGSIYQYNAMGWYRQAPGKERELVAAISSRGGITYYADSVKGRFTISRDNAKNTVYLQMNSLKPEDTAVYYCAAEGYYSEVRWYEYWGQGTQVTVSS | high polyreactivity
QVQLVESGGGLVQAGGSLRLSCAASGLIFPFYTMGWYRQAPGKERELVASISSGASTYYADSVKGRFTISRDNAKNTVYLQMNSLKPEDTAVYYCNADTFAWEGQRKWFAYDYWGQGTQVTVSS | low polyreactivity
QVQLVESGGGLVQAGGSLRLSCAASGYIFRQNAMGWYRQAPGKERELVAAITWSGGSTYYADSVKGRFTISRDNAKNTVYLQMNSLKPEDTAVYYCNAYSYVAIRDGGDYWGQGTQVTVSS | low polyreactivity
QVQLVESGGGLVQAGGSLRLICAASGFIFASYAMGWYRQSPGKEREFVAAITRRGGTTYYADSVNGRFTISRDNAKNTVYLQMNSLKPEDTAVYYCATAHSRPGYVFDYWGQGTQVTVSS | high polyreactivity
QVQLVESGGGLVQAGGSLRLSCAASGFIFSIYTMGWYRQAPGKERELVAAISWSGGSTYYADSVKGRFTISRDNAKNTVYLQMNSLKPEDTAVYYCNRVQFSPVYRFREYDYWGQGSQVTVSS | high polyreactivity
QVHLVESGGGLVQAGGSLRLSCAASGRIFRQYAMGWYRQAPGKERELVAAISYSGGSTYYADSVKGRFTISRDYAKNTVYFQMNSLKPEDTAVYYCAATRWVPATGKFGYWGQGTQVTVSS | high polyreactivity
QVQIVESGGGLVQAGGSLRLSCADSGRTLYRYGMGWYRQAPGKERELVDVIDRGGSTNYADSVKGRFTISRDNAKNTVYLLMNSLKPEDTAVYYCAKRWTAREPWRKGMGYWGQGTQVTVSS | high polyreactivity
QVQLVESGGGLVQAGGSLRLSCAASGRTFSYNAMGWYRQAPGKERELVAAINGDGGSTYYADSVKGRFTISRDNAKNTVYLQMNSLKPEDTAVYYCNRPRIYRYGYWGQGTQVTVSS | high polyreactivity
QVQLVESGGGLVQAGGSLRLSCAASGNIIDANAIGWYRPAPGKERQLVAAITSSGGSTYYADSVKGRFTISRDNAKNTVYLQMNSLKPEDTAVYYCAKSHAIYYWWDESWGQGTQVTVSS | low polyreactivity
QVQHVESARGLVQAGGSLRLSCAASGRTFFSYAMGGYRQAPGKERELVAAITSGGTTYYADSVKGRFTISRDNAKNTVYLQMNSLKPEDTAVYYCAVLGLGQKRGRAFLFPYDYWGQGTQVTVSS | high polyreactivity
QVQLVESGGCLVQAGGSLRLSCASSGSTFVRYTLGRYRQAPGKEREMVARISRTSSTNYADSVKGRFTISRDNAKNTVYLQMNSLKPEDTSVYYCNAREYYPTKSRFKYWGQGTQVTVSS | low polyreactivity
QVQLVESGGGLVQAGGSLRLSCAASGSTFYNYAMGWYRPAPGNERELVAAIDTGGSTNYADSVKGRFTISRDNAKNTVYFQMNSLKPEVTALDYCNTVYLYGTHDYWGQGTQVTVSS | low polyreactivity
QVQLVESGGGLVQAGGSLRLSCAASGSIFPKYAMGWYRQAPGKERELVAAISRGGGSTYYADSVKGRFTISRDNAKNTVYLQMNSLKPEDTAVYYCAALFTPALSEYDYWGQGTQVTVSS | high polyreactivity
QVQLVESRGGLVQAGGSLRLSCATSGIFVVYALGWYRQAPGKVRELVAAISSGVSTSYADSVKGRFTISRENAKNTVYLQMNSLKPEDTAVYYCNTLWGHKFIVPFRTREFYYWGQGTQVTVSS | low polyreactivity
QVQLVESGGGVVQAGGSLRLSCAASGSIFSLYAMGWYRQAPGNERELVDAISSSGTSTYYADSVKGRFTISRDNAKNSVYLHMNSLKPEDTAVYYCNAYRRRATYNGDYWGQGTQVTVSS | high polyreactivity
